Source: the DeepSol protein solubility set

Assay: soluble on expression in E. coli; label from the status in PepcDB or PDB records

For “MIRRAVVAGQFYPDDAELVEMLKRFFTDLGEEGNSRRITAGVAPHAGYIFSGYTASRTYKAIYEDGLPEVFVILGPNHTGLGSPIAVYPKGEWETPLGRIKVDEKLARRITELSEIADLDDLAHKYEHSIEVQLPFIQYLAELSGKDVKIVPITLGIQDEEVSYALGKAIYEASQELGRDIVVIASTDFMHYGEFYGYVPFRARADELPNLVKEWDMRVIRRILDFDVEGMFEEINAMNHTMCGPGGVGVGIVYSKLAGAIEAELLHYTTSFEVSRSTDAIVGYASIVMRKALEHHHHHH”, the “soluble on expression in E. coli” value was “not soluble”.

For “MAPITVGDVVPDGTISFFDENDQLQTVSVHSIAAADGFLDFDLRIGVFGFSEVSMSHVPGFIGKAEELKSKGIDEIICFSVNDPFVMKAWGKTYQENKHVKFVADGSGEYTHLLGLELDLKDKGLGIRSRRFALLLDNLKVTVANVENGGEFTVSSAEDILKALLEHHHHHH”, the “soluble on expression in E. coli” value was “not soluble”.

For “GSTERPVAGPYITFTDAVNETTIMLKWMYIPASNNNTPIHGFYIYYRPTDSDNDSDYKKDMVEGDKYWHSISHLQPETSYDIKMQCFNEGGESEFSNVMICETKARKSSGQ”, the “soluble on expression in E. coli” value was “soluble”.

In the case of “MATTKPYRVLLYYMYTTIENPEEFAAEHLEFCNSLELKGRILVAKEGINGTCSGTVEQTEKYMEAMNNDPRFDGIVFKIDEADGHAFKKMHVRPRPELVTLRLEDDINPHEITGKYLEPKDFYEAMKQEDTVIIDARNDYEFDLGHFKGAIKPDIESFRELPDWIRENKEVLEGKKILTYCTGGIRCEKFSGWLVREGYEDVSQLHGGIVTYGKDPEVQGELWDGQCYVFDERIAVPVNQKEHVIVGKDHFTGEPCERYVNCSNPECNKKILCSEENEAKYLRACSHECRVSPRNRYVIQHELTEEQVAAALEQIEAGKLEHHHHHH”, the “soluble on expression in E. coli” value is reported as “soluble”.

With “MPTSIQFQRSSTAAEAANATVRNYPHHHQKQVQKVSLTRGMADVPEHVELSHTHVVGPSQCFSVVVQDVEAPVSTVWSILSRFEHPQAYKHFVKSCHVVIGDGREVGSVREVRVVSGLPAAFSLERLEIMDDDRHVISFSVVGGDHRLMNYKSVTTVHESEEDSDGKKRTRVVESYVVDVPAGNDKEETCSFADTIVRCNLQSLAKLAENTSKFS” the “soluble on expression in E. coli” value was “not soluble”.

For “MNSFYSQEELKKIGFLSVGKNVLISKKASIYNPGVISVGNNVRIDDFCILSGKVTIGSYSHIAAYTALYGGEVGIEMYDFANISSRTIVYAAIDDFSGNALMGPTIPNQYKNVKTGKVILKKHVIIGAHSIIFPNVVIGEGVAVGAMSMVKESLDDWYIYVGVPVRKIKARKRKIVELENEFLKSMNSLEHHHHHH”, the “soluble on expression in E. coli” value was “not soluble”.

In the case of “MTRQHSTQPDPKLDLVLERTIDVPPALVWQAWTQPEHIKHWLTPAPWQTVRCDVDLRPGGRFRFVMRSPEGEEHTHDCCYLEIVEGSRLVWTNALLPGFRPAGGGGDVPAFTAVIRIEPHDQGTRYTATAMHGTQAGCRQHSDMGFHDGWGAALDQLVAHARNMQQASLEHHHHHH”, the “soluble on expression in E. coli” value is reported as “soluble”.

In the case of “PEYQANVQILVNRKHSSAGADLTGQQADVQMITTYKELITKPVVLKPARQTLMAETDIRRSLESLKQTVSVTSTANSQVFSIGVRDKNAKASAMIANQIAATFKDQVQHIIKVNNVTIVAPAETPDQSVAPKK”, the “soluble on expression in E. coli” value is reported as “not soluble”.

In the case of “MTIEKPKISVAFIALGNFCRSPMAEAIFKHEVEKANLENRFNKIDSFGTSNYHVGESPDHRTVSICKQHGVKINHKGKQIKTKHFDEYDYIIGMDESNINNLKKIQPEGSKAKVCLFGDWNTNDGTVQTIIEDPWYGDIQDFEYNFKQITYFSKQFLKKEL”, the “soluble on expression in E. coli” value is reported as “soluble”.

In the case of “MTIQQSVTHQLLIPITFEGKEHTTITLQRPKTKDLQAIDKKEGVEQTIAMIARLSGWPHEAISELDINDLSSIGEILESFIKRRDTSTGKPPQN”, the “soluble on expression in E. coli” value is reported as “soluble”.

With “SLPRDENMPLIQVIDDDVSMLILLKDALESKGWMVMANTEPEKAVDQFFDMNPDCLIIDVNLPGKSGFHVLEDIQKHTNKKFIPKLMISIMNDRETRIKAYRLGADDFISKPIDLEEFLIKVERHLDRKQIFDQSVLIDELTQVYNRRFLKDSLKRYLKELERSNQYFSIAVLDLDHFKQVNDMYGHPAGDRILSEFAQYLKDHVRIGDIVFRYGGEEFILLLPRTNDHDSKEVVSRLLSGFSSRTFIEGGAELKMTFSAGVYMVHDPSATVAEAIKTADQALYKAKRNGRARVESANKLIGGHSRKVLNVSVIDDDAIIRTMLMKILQSMEFEHTSLDIQVYEDGQKFLQSGRMEQKGEHFLILDGIMPVMDGTEVLQKVKENRNASRVHVLMLTGRKTEYDIARALKLGADDYVTKPFSITELQARIHRLIQRMSEG” the “soluble on expression in E. coli” value was “soluble”.

With “SMDPPPSETHKLVVVGGGGVGKSALTIQFIQSYFVSDYDPTIEDSYTKICSVDGIPARLDILDTAGQEEFGAMREQYMRAGHGFLLVFAINDRQSFNEVGKLFTQILRVKDRDDFPVVLVGNKADLESQRQVPRSEASAFGASHHVAYFEASAKLRLNVDEAFEQLVRAVRKYQEQELPPS” the “soluble on expression in E. coli” value was “soluble”.

With “MNIISEHGFRIDGRRPAQIRNINTRLGLNRNAEGSCYLEHGNTKVLCAVYGPYEGKSSKRIEDKCAIVCQYSATKFSGLERKNRTRGDRKSTEISRLLEKAFESVILTEAFPRSQLDIFCEVIQGDGSNLAACVNATSLALADAGIPMKGIASAATCGVVDGKPIVDLTSREETDLLPRVTLATICGRDEVILVELQNRLHIDHLSTVMDAAKATCADVYECLAVVAQQHLKACAPILGN” the “soluble on expression in E. coli” value was “not soluble”.

In the case of “QDLTVKMTDLQTGKPVGTIELSQNKYGVGFIPELADLTPGMHGFHIHQNGSCASSEKDGKVVLGGAAGGHYDPEHTNKHGFPWTDDNHKGDLPALFVSANGLATNPVLAPRLTLKELKGHAIMIHAGGDNHSDMPKALGGGGARVACGVIQ”, the “soluble on expression in E. coli” value is reported as “soluble”.

With “MGETAGREHGTVTRSAEYIGSFPVDDSCLDDQIQQLHTQLKSLKNCKSKRTVSLRFSVKGVKVYDEDETTLLMAHAMCRVSLSTARPSDAQFAFASHNPGNSDAQLYCHLFRARHARAAQFLNLLLCRCFQLYFLEKHPEEAQEECSGKKPSRAPSLLNQGFPLSVSALVSFRRAPTQGLLPGAKLFSQQSTEQVSSPEEGPTSSPTIVRKMAIRTKELRSGAYRSFTFTPLKQRHLQDKLSAPQGGMSVHRTLSRLKEFLRKGTSHCKGMHVSSSQFGRNRRSTGSSCVVLGWRV” the “soluble on expression in E. coli” value was “not soluble”.

In the case of “MKRSNTVRLVVSKEQHEVLKRLGIATAKCWNEVNWLRMKQYKEGKRVDFGITEKAVYEKYKSVLRVNAQQVARKNAEDWRSFFSLTREKKEGKLPSWFKPRPPGYWKDGRLIVIIRNDRYTVDERNRVVYLKDFNLSLKFKGRLKWHGKQGRLEIIYDEARKIWYAHIPVEVETEKVKEGIKASIDLGIVNLATVYVEDGSWYLFKGGSALSHYENYSKRITIVQKTLHRHRQRRSRRLKLLHEKRSRFLKHALNSMVRRIMEILREKNVGEVVVGYPKEIAKHHGNKLTVNFWNYSYIIKRLEDIGEELGIKVITVDEAYTSKTCSLCGEAHEDGRVKRGLFVCPRTRKAINADLNGAINILHIPESRGSEGNFHRGIGVIGLKTQPVTLSDLSKIKNHYNYSISDYTILHYIQPLEHHHHHH”, the “soluble on expression in E. coli” value is reported as “soluble”.

For “MGSDKIHHHHHHMPTVKLTKNITIMTGSPNTLIYDNRVVIDLGGKNSSVDINAEVQLATHGHADHIAGLLKKDAKIRYLPKEDYWSLTLMGRRAMIYGCSSKDSDIFTFDYVKENIESIDIEVRTSEIEVIKLPGHTPGHSGYIVDNVLYAGDAFFGEKVLEGFSVPFYTDFWTALESLNKVKELAKSVNNIVISHGPVYTNKNKMVSILESNIIYAQNLIGKILDMLSNNELTVEEIVVKLKQDLTPSNVLLNSVVVRSILFGLENIEYNVSQKGLVFRRRVH”, the “soluble on expression in E. coli” value was “not soluble”.

For “MSATAKHDSNASPNSDSEDGHHHNNKKECAIEYLKARLNSASAVACGYLQAFVSKTQDFAKVCFLELQNPVVLVNLLLHSSVVCYLCNGYANHNARFLKGKPNSTVLATTAGALGLLTLDGIISKKYYSRYDKK”, the “soluble on expression in E. coli” value was “soluble”.

For “MSTTAYQPIAECGATTQSEAAAYQKRWLVANDAGQWLNRDLCPRLAEVSVELRMGYLVLKAPGMLRLDIPLDVIEDDDSVRYQMLVGEQTVDVVDEGELAAAWISNHAGVPCRILKVHPDMAEVRWPSLEHHHHHH”, the “soluble on expression in E. coli” value was “soluble”.

With “MGSDKIHHHHHHMSWEISGTYVGSCTCQLICPCPVDGLPTGPDGECRGLNVFHIASGKMDDTDLSGVDFAFANWFPSHLTAGGWKVGAVVDDAASDAQVRALGSILRGEAGGPFGDLAALYGEWLGLERAGVKFSGGDTPAGSVADRVVITFEPLPGPDGGVTTVKNAMYGFAPEFQIGKGTGHPDLFGLAFDGVYGETSDFSFASEMAEGAPKGRG” the “soluble on expression in E. coli” value was “not soluble”.

With “MTGQRDGASLHDALTDKQAAVLRAAFHAGYFEWPRESTAEDLAADMGVTAPTLHNHLRRAQQKLLEHHHHHH” the “soluble on expression in E. coli” value was “not soluble”.

In the case of “MAEVLKKVDVVTVGAGWTGGIVAAELTKAGLNVLSLERGHMQSTENFNYIHDEWRYGINYGLMQDCSKDTVTFRHDPSGLALPYRKMGSFLLGNNVGGAGVHWNGWTFRFMPYDFEIQTLSKQRYGNKLGNDYTLQDWGVTYKDMEPYYDRFEKTCGVSGEPNPLAEKMGAFRSSPYPQEPLENTKMLKRFESAAKSSNLHTYRLPASNSKGGYTNPDGQDLAPCQYCAYCERFGCEYGAKASPLNTVIPKAMSTGKYTIRTYSNVTQILKKDGKVTGVKFVDTRTMKEYIQPADIVVLTSYMFNNAKLLMVSNIGEQYDPKTGKGTLGRNYCYQMNMGTTAFFDEQFNTFMGSGALGTTSDDFNGDNFDHSKEKFLHGAMIYSVQLGTRPIQSAPLPAGAPTWGAEFKKALNYNFTRAITVGGQGASLPHKNNYLSLDPTYKDAFGMPLLRLTYNFTDQDRALHKFITDKTAEVAKRMQGVKSIKKGAYLKDYSVVPYQSTHNTGGTTMGADRETSVVNTYLQHWDADNLFVVGAGNFQHNSGYNPTDTVGALAYRCAEGILKYHKSGKSLALEHHHHHH”, the “soluble on expression in E. coli” value is reported as “not soluble”.

With “MAPTSSIEIVLDKTTASVGEIVTASINIKNITNFSGCQLNMKYDPAVLQPVTSSGVAYTKSTMPGAGTILNSDFNLRQVADNDLEKGILNFSKAYVSLDDYRTAAAPEQTGTVAVVKFKVLKEETSSISFEDTTSVPNAIDGTVLFDWNGDRIQSGYSVIQPAVINLDMTKASYITMGYDKNAAEVGEIIKATVKINKITNFSGYQVNIKYDPTVLQAVNPKTGVAYTNSSLPTSGELLVSEDYGPIVQGVHKISEGILNLSRSYTALEVYRASESPEETGTLAVVGFKVLQKKATTVVFEDSETMPNGITGTTLFNWYGNRIQSGYFVIQPGEINSAPIATLEHHHHHH” the “soluble on expression in E. coli” value was “soluble”.

In the case of “MQINNQSRDVFYVSDGTAITCETLGHVVLGQFPFIPNEKTFPFVESQDKVADVVKEIETSYQRNGVKPLVFFSIVVPGVREMLLEAPAYSYDVLESIVQKVQDDIQMAPAPKLQRSRSVGKDSDTYFDRIAAIEYTLAHDDGITLKGLEQADIILLGVSRSGKTPTSLYMAMQFGLRVVNYPFIAEDVKMMRLLPEFEVHRHKLFGLTITPERLNEIRENRLSGSDYASEEQCKLELDTVEALFRREAIPYINTSSLSVEEISTRILERAGMKRRLFGLEHHHHHH”, the “soluble on expression in E. coli” value is reported as “soluble”.

With “MNKPENFEEAIEIKRDPEDFSVEEIADIEPDPNGKYTIIKARVRDWDTNRIAAEIARRLHMSRKRVTFAGTKDKRAVKLQYFCINSADVDVASLSGIKDFEVIESFKSSHYLTLGDLIANHFKIRFYGIDPEMFRERYVHIISKGGFPNFFGDQRFGSRRRNTHEIGKLIIKGEYEEAVKKYIYDEKYDKESYRKHFIDTLDYKTALERFPHSLSFERSLIGYYARNGTFKGAFDSLPKNLTIMFVHAYQSYLFNRILDERLKIYGLNAVLPGDIAFPVDAYFNPDKSKPIEVNSYNREKISKLVSSDKIRISLPIFGYKTWIDNSDFGDVEYGILKEEGISQDDFKNKDFAYLSSSGDRRIISAKPINFSLENNVVEFTLGKGIYATVFLSSIGRLKENVYSDSEAELLEHHHHHH” the “soluble on expression in E. coli” value was “soluble”.
